Source: the DeepSol protein solubility set

Test: soluble on expression in E. coli; label from the status in PepcDB or PDB records

| Sequence | soluble on expression in E. coli |
| --- | --- |
| MGSDKIHHHHHHENLYFQGMTQLELLLERIIDRVNVNLRHQKFDVGDYVRRQTPHLHYSKFYAFYGLSADDPVHFHFKNSSLAGSYLLGRVNVLHSALYKSDIRGDELKRKGQHFVCDGKMIPLHDDEVITIKDSFLNKTLVHSNSHDPESPEEFTIRNTVAMPYANIHGSLTEGSFIGSFATVDLSTIHNSVVRYFSYVQTGELVGKCVEPGQIWIKSGDELEFHYSFDKAILDKYISQEAGSCPTGVLMEFVEVRQEDFEEVFASGHMASGAGSASGASVSGYAVIKGDTVIGENVLVSQRAYLDNAWMGKGSNAQENCYIINSRLERNCVTAHGGKIINAHLGDMIFTGFNSFLQGSESSPLKIGDGCVVMPHTIIDLEEPLEIPAGHLVWGYIRNKADLAAHSISFEEFAKVDGEVTMGRMTFRGKGGPFLDSFKKRIKRILSENGAFFDGSEGTGHAQKGKNFTFNIIQPYQDGDPRGMYPTILIQPNNGS | soluble |
| ARYLDVTSRRDPEHSHRTYYVTGQVFFASADRFTASFDLREKVETLAIDLREAHFWDITAVAALDKVVLKLRRAGISVDVVGMNRATATLVDRFGVHDKPDGIDSLMGH | not soluble |
| MAHQLLIGKGMITLNLKRIFLALTLLPLFAVAADDCALSDPTLTVQAYTVNPQTERVKMYWQKANGEAWGTLHALLADINSQGQVQMAMNGGIYDESYAPLGLYIENGQQKVALNLASGEGNFFIRPGGVFYVAGDKVGIVRLDAFKTSKEIQFAVQSGPMLMENGVINPRIHPNVASSKIRNGVGINKHGNAVFLLSQQATNFYDFACYAKAKLNVEQLLYLDGTISHMYMKGGAIPWQRYPFVTMISVERKGLEHHHHHH | not soluble |
| MLPKPGTYYLPWEVSAGQVPDGSTLRTFGRLCLYDMIQSRVTLMAQHGSDQHQVLVCTKLVEPFHAQVGSLYIVLGELQHQQDRGSVVKARVLTCVEGMNLPLLEQAIREQRLYKQERGGSQ | soluble |
| MIKSALLVLEDGTQFHGRAIGAEGTAVGEVVFNTSMTGYQEILTDPSYSRQIVTLTYPHIGNVGTNASDEESSAVHAQGLVIRDLPLIASNYRNEEGLSEYLKRHNIVAIADIDTRKLTRLLREKGAQNGCIIVGELSDAALALEKAKAFPGLKGMDLAKEVTTKEMYQWLQGSWTLEGDLPAAKQPEDLPFHVVAYDYGVKRNILRMLVDRGCRLTVVPAQTPAEDVLKLNPDGIFLSNGPGDPEPCDYAITAIKRFLETDIPVFGICLGHQLLALASGAKTVKMKFGHHGGNHPVKDLDASCVMITAQNHGFAVDETSLPSNLRTTHVSLFDGSLQGLHRTDKAAFSFQGHPEASPGPHDAAPLFDHFIELIEAYRASSVSLNCSNSHK | not soluble |
| MRVELIYDKRNVGSLANATEIIRAELTKRVHRVFPDAEVNVKAMHANGINTNASKQEKSVLNRLVEEMFDEADEWLNNEF | not soluble |
| MGSDKIHHHHHHMLAGGKMGDMKITRHIHACVEISQGNDRIIIDPGTFGAPDLCGATILVTHNHADHVDPELLKPGMTIYAPRSVAHSIPVECHIVEHGRNFTVGSLSVEVLGSEHAMLTHSMPIAENVGYLINGRVLHPGDTFQPIKDVELALVPVNGPWVKMLDVEGYLKKFPPKRFIGIHDGIVNDRGLAINKKFLTHLGETYGSEYSPLEEGESLEI | not soluble |
| MGSDKIHHHHHHCQTQVETAPTSDVIKLQQTALASQLGYDIVESLTVEVGPRLAGSPKDIIAVNWAINKLTSLGFDRVYKEPVQVPIWERGEAKAKITFPVEQPLVITALGGSIATPAGGIQAKIARFDSLEALQQAKPEDVQGKIAFIDQKTERHITGEGYGKSVGGRSKGAVVAAQKGAVAIVIRSIGTDHDRMAHTGVMRYQDDVPKIPAAAMSNPDADLVDALLKRNPDALLELQMSPKNAGFNTSYNVIAEVTGSSKPNEIVLIGAHLDSWDEGTGAIDDGAGVAIVTAAAKHIQDLLVKPARTVRVVLYAAEEIGLVGGKAYAETHKAELPLHYIAAESDFGAGRIYQIDTKVNESAFAEVQHALSPMSFNGVALGNNQASGGPDVSMLPALGVPVASLRQDGHDYFDYHHTPNDTLDKIDPAALAQNVAAYAQFAYIMANSTPTLTPLVIQSEK | not soluble |
| MTRMLPEPAYRHGSVGKIGVLMINLGTPDAPTAKALRAYLKQFLSEPRIVEFPRWLWWFILNGIILNVRPAKSAKKYEQIWTSEGSPLRVHTARQTALVAALLEQQADSSLVVEYAMIIGNPSIAEKLQQMKVQGCDRILVLPLFPQYAASSTGCVLDGVFSELRKMRNIPDIRTVRHYHDDPGYIAALAQNVRDYWEKHGQPDKLIISFHGVPRKTLEMGDPYHCECQKTGRLLAEALELADDRYQICFQSRFGFAQWLGPYTAEILAELGKQKTGRVDVVCPGFVSDCLETLEEIALEGKAIFTEAGGGEFHYIPSLNEHPLWIEAIGNIIQTHLTGWADRRLSEEAAERSRKRALALGARE | not soluble |
| MGDYDYLIKFLALGDSGVGKTSFLHRYTDNTFTGQFISTVGIDFKEKKVVYKSSRGGFGGRGQRVLLQLWDTAGQERFRSLTTAFFRDAMGFILIFDITNEQSFLNIRDWLSQLKVHAYCEQPDIIICGNKADLENRRQVSTARAKQLADQLGLPYFETSACTSTNVEKSVDCLLDLVMQRIQQSVETSSLPLSECRGVSLDGDPSAASSYCANC | not soluble |
| MGSDKIHHHHHHVYKALFFDVDDTLLNFEQCSREALGKTFRHFSMDYDDTVYELFRSIDQRLWLQQKQGELTVQDVINLRFQELFKQLQLGCSHIPLQTMFQERLAEEFFTEPHAAESLGYLSARYQLFVTSNGILKTQLKRLELAGLLPYFTDVFVSDHIGHEKPSVRFFEECLQRSRLKPSEVLLIGDSLEADMVGAQTSKMDSCWYNPKHRNTDSDVEIDYIISDLLQLKDILQ | not soluble |
| MMNADCKTAFGAIEESLLWSAEQRAASLAATLACRPDEGPVWIFGYGSLMWNPALEFTESCTGTLVGWHRAFCLRLTAGRGTAHQPGRMLALKEGGRTTGVAYRLPEETLEQELTLLWKREMITGCYLPTWCQLDLDDGRTVNAIVFIMDPRHPEYESDTRAQVIAPLIAAASGPLGTNAQYLFSLEQELIKLGMQDDGLNDLLVSVKKLLAENYPDGVLRPGFALEHHHHHH | soluble |
| MGSDKIHHHHHHMLSRFSDSRPAVTVKNVALTYSGADKPALQIEDLTIPEGQCVVLCGQSDSGKSSFLKMLNGLTPEYYPAQLSGQIFLGDLDLQKSSLEEISRHIASVFQHPSTQFFHSQVLQELVFPCENQGLSREEIENRLAWVMELFGLASLSRRTISSLSGGQQQRLALAVTAMQGTDVLVLDEPTANLDQEGIAIVEDILKTLKSQGKTIIIAEHRLSYLSQLADRYLYFQDGQVVTDYLADEFLSRTEECRQDMGLRCYDSEPYGRAIAELADQFVNDKEGLLVENLSVSQKENTLYEIEKLCLASGQVVGLVGANGSGKTSLARYLVGLAEDKKSRISWQGQTLSSRQRLEKTAFVMQDVRLQLFAESVERELTLGRKNRAVDEHLVARFGLSDLLERHPVSLSGGEQQRVMIVASLLADKEIFIFDEPTSGLDLRRMQQVASALVDLKMKNKLVLLISHDEELLNLVCDKIVDIKQLK | not soluble |
| SNAMSMAYEEYMRQLVVPMRRELTGAGFEELTTAEEVENFMEKAEGTTLVVVNSVCGCAAGLARPAATQAVLQNDKTPDNTVTVFAGQDKEATAKMREYFTGAAPSSPSMALLKGKEVVHFIPRHEIEGHDMEEIMKNLTAAFDAHC | soluble |
| MEGDTVHWQTHTVFNQPIPLNNSNLYLSDGALCEAVTREGAGWDSDFLASIGQQLGTAESLELGRLANVNPPELLRYDAQGRRLDDVRFHPAWHLLMQALCTNRVHNLAWEEDARSGAFVARAARFMLHAQVEAGSLCPITMTFAATPLLLQMLPAPFQDWTTPLLSDRYDSHLLPGGQKRGLLIGMGMTEKQGGSDVMSNTTRAERLEDGSYRLVGHKWFFSVPQSDAHLVLAQTAGGLSCFFVPRFLPDGQRNAIRLERLKDKLGNRSNASCEVEFQDAIGWLLGQEGEGIRLILKMGGMTRFDCALGSHAMMRRAFSLAIYHAHQRHVFGNPLIQQPLMRHVLSRMALQLEGQTALLFRLARAWDRRADAKEALWARLFTPAAKFVICKRGMPFVAEAMEVLGGIGYCEESELPRLYREMPVNSIWEGSGNIMCLDVLRVLNKQAGVYDLLSEAFVEVKGQDRYFDCAVRRLQQQLRKPAEELGREITHQLFLLGCGAQMLKYASPPMAQAWCQVMLDTRGGVRLSEQIQNDLLLRATGGVCV | not soluble |
| MKSYHKELWMEVPSRMDFVNITRDVSRALDESGIREGLCLVNAMHITASVFINDDEPGLHADYKQWLEELAPHNPSHYQHNRTGEDNGDAHHKRQIMGREVVVAVTKGELHLGPWEQIFYGEFDGRRRKRVLIKIIGALEHHHHHH | soluble |
| MSLTDLSRPTLPGALPDKRQVAASFSRAAASYDSVAALQRAVGLSLLEQLPAGLQPSHWLDLGSGTGHFSRMLAERFAQAGGVAVDIAEGMLLHARHVKGGAQYHVVGDAERLPLRDASVDLVFSSLAVQWCDQFASVLAEAQRVLRPGGVLAFSSLCVGTLDELRASWQAVDGLVHVNRFRRFEDYQRLCAASGFEQLELERCPHVLHYPDVRSLTHELKALGAHNLNPGRPSGLTGRARMQGLLQAYEAFRQPAGLPATYQVVYGVLRKPLAEGHHHHHH | not soluble |
| GPGSMKATIITPGETYRILAPASSLHKYLTDSYWCSAMEEVCEGKLDGVAVRYTGQQLVLLQFRPKQLSPAGYRYPISMSIPVEYLVPISTEESTEDHNICKHDTNYGTKESTFLGSGFAPLCVVCGRYNVPGMVLRHHGYKCPECVGHKSTRKLRMEGARRR | not soluble |
| MDKIYIHDMEFYGYHGVFPEENKLGQRFKVDLTVELDLKRAGESDDLEHSVNYGELFELCRKVVEDRTYKLVESIAENIATDILKQYESISRCTIKVIKPDPPIPGHYRAVAVEITRERP | not soluble |
| MSLSNTGINCPFDCGLCPRHRSHTSLINIVLTNRCNLSCWYCFFYAREGEPIYEPTLEQIRMMLRNAKKEHPIGANAVQFTGGEPTLRDDLIEIIKIAKEEGYDHIQLNTDGIKLAFDPELVKKLREAGVNTLYLSYDGMTPQTNWKNHWEIPLIFENVRKAGGPGIVLVPTLIRNINDHEAGAIINFGLNHLDIVRGVNFQPISLVGRVPRKERQRFRITIAGAIKKIEEQTNGVIAKEDWYPIPIAGHIARFFEAFTGRKYYMTSHFACGAATYVFLDREEKKVIPIPRFIDVDGFVEFLVEKAEEIEKARFKSLAKLKAIGETIFVKFKQFYDEKNAPKGLDVLGLIKNAFVHGTYDALGKFHMNTLFIGMMHFMDEYNYDVERVERCVIHYAMPDGRIVPFCTFNVIPEIYRDKVQRQFSYSWEEWKKLHPDEGHHHHHH | not soluble |
| MDDRRPQLTEEQLLFRIALTHVKGVGSVLARQLLSAMGSPEAIFSDRKELVQRLPKAPRRLLDAIFSPSVMEEARRKLDQALKAGLNMYFITDDNYPYRLKECVDAPILLYSKGNVDLSPRRVLSIVGTRNITAYGRTATERIVSGLAETIPDLLIVSGLAYGVDVAAHKAALDNGLPTVAVLAHGLDRIYPSGHRSIAMEMLRNGGLLTDYPMGTEPERFNFVGRNRIVAGLSDATLVIESAEKGGSLITAGLAFGYNREVLALPGRATDSRSAGCNALIRDQKAALVSSAQDVLTLLDWSSTIDAKPQTLNFRPDSWPDTPVAECLLRAGTASVDELTRATGLPINDVSAQLFDLELDGLVQSQPGGIYSVI | not soluble |
